PMC9482650, “Quantitative fragmentomics allow affinity mapping of interactomes” (Nature Communications, 2022)

What was measured:
Assay in all cases: holdup assay
Set-up in all cases: key: below the threshold = too weak to quantify, mostly under pKd 3.1 to 4
Settings in all cases: plain residues with an end cap or a label only (N-terminal biotin on a linker: ttds)
APBA1_1, Q02410 = target: T1, APBA1_1, Q02410
T1 sequence (Q02410 651-752, limits assumed, looked up): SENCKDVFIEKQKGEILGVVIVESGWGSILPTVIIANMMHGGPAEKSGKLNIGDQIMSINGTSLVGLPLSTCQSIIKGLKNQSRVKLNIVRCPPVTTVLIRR

ARHGEF12, Q9NZN5-2 = target: ARHGEF12, Q9NZN5-2
DLG1_2, Q12959 = target: DLG1_2, Q12959
DLG2_3, Q15700 = target: DLG2_3, Q15700
DLG5_1, Q8TDM6 = target: DLG5_1, Q8TDM6
DVL3, Q92997 = target: T2, DVL3, Q92997
T2 sequence (Q92997 244-331, limits assumed, looked up): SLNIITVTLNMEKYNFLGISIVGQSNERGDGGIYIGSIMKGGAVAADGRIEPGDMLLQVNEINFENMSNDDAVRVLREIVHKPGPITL

GRIP1_2, Q9Y3R0 = target: T3, GRIP1_2, Q9Y3R0
T3 sequence (Q9Y3R0 145-248, limits assumed, looked up): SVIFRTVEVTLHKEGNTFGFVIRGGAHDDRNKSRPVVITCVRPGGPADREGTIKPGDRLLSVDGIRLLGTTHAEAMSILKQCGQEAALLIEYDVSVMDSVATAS

GRIP2_3, Q9C0E4 = target: GRIP2_3, Q9C0E4
HTRA4, P83105 = target: T4, HTRA4, P83105
T4 sequence (P83105 378-476, limits assumed, looked up): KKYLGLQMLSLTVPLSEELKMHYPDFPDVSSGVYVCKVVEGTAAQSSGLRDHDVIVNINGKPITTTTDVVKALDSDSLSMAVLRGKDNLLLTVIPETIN

IL16_1, Q14005 = target: IL16_1, Q14005
Inadl_10, Q8NI35 = target: Inadl_10, Q8NI35
Inadl_8, Q8NI35 = target: Inadl_8, Q8NI35
LIMK2, P53671 = target: LIMK2, P53671
LIN7C, Q9NUP9 = target: T5, LIN7C, Q9NUP9
T5 sequence (Q9NUP9 88-185, limits assumed, looked up): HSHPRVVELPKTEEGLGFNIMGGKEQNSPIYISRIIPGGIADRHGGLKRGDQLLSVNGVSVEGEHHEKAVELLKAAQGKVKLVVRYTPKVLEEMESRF

MAGI2_2, Q86UL8 = target: MAGI2_2, Q86UL8
MAGI2_5, Q86UL8 = target: MAGI2_5, Q86UL8
MAST2, Q6P0Q8 = target: MAST2, Q6P0Q8
NHERF4_1, Q86UT5-2 = target: NHERF4_1, Q86UT5-2
NHERF4_4, Q86UT5 = target: NHERF4_4, Q86UT5
RAPGEF6, Q8TEU7 = target: T6, RAPGEF6, Q8TEU7
T6 sequence (Q8TEU7 525-625, limits assumed, looked up): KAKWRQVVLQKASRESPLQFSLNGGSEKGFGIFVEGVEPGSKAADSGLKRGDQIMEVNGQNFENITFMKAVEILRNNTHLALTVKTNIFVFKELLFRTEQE

RHPN1, Q8TCX5 = target: T7, RHPN1, Q8TCX5
T7 sequence (Q8TCX5 508-602, limits assumed, looked up): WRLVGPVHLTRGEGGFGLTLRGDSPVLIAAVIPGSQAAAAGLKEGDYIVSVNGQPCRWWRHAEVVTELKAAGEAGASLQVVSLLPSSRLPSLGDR

SNTA1, Q13424 = target: T8, SNTA1, Q13424
T8 sequence (Q13424 82-180, limits assumed, looked up): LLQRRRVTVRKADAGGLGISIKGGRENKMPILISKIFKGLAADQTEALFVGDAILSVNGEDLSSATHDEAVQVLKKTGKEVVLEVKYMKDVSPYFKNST

SNTB1, Q13884 = target: T9, SNTB1, Q13884
T9 sequence (Q13884 107-205, limits assumed, looked up): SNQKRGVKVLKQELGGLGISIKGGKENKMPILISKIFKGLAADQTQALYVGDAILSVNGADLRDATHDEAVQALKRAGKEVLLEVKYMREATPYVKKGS

SNTG1, Q9NSN8 = target: T10, SNTG1, Q9NSN8
T10 sequence (Q9NSN8 52-150, limits assumed, looked up): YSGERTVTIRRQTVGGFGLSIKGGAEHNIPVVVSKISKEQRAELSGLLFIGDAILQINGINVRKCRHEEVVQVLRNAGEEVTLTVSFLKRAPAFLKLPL

TJP2_1, Q9UDY2 = target: TJP2_1, Q9UDY2
TX1BP3, O14907 = target: T11, TX1BP3, O14907
T11 sequence (O14907 10-122, limits assumed, looked up): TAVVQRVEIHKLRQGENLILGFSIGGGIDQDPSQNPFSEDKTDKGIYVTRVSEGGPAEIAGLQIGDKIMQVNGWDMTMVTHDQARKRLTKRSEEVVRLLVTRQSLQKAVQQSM

Sequence of Inadl_8, Q8NI35 (Q8NI35 1425-1530): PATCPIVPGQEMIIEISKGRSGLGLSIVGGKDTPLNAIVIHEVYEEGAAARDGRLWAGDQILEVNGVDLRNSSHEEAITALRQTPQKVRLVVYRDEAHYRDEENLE
Sequence of GRIP2_3, Q9C0E4 (Q9C0E4 238-339): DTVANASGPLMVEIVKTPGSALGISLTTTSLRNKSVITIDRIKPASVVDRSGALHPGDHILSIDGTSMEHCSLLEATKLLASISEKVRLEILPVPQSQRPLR
Sequence of DLG1_2, Q12959 (Q12959 314-412): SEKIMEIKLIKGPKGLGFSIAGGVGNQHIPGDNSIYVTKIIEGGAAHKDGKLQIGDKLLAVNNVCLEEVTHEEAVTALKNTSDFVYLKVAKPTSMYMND
Sequence of ARHGEF12, Q9NZN5-2 (Q9NZN5 other isoform, or with tags, fused parts or gaps): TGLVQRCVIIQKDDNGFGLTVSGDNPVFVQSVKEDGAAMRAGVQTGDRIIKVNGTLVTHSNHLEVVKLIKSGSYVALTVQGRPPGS
Sequence of IL16_1, Q14005 (Q14005 210-306): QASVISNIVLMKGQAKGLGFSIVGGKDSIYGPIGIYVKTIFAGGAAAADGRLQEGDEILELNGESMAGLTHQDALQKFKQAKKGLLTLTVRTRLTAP
Sequence of DLG5_1, Q8TDM6 (Q8TDM6 617-713): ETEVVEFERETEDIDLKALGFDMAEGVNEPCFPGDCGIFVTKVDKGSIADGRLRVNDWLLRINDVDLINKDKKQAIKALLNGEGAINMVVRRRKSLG
Sequence of NHERF4_1, Q86UT5-2 (Q86UT5 other isoform, or with tags, fused parts or gaps): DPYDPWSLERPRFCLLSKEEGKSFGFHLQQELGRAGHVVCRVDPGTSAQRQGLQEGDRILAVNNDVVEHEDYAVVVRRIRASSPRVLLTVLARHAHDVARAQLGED
Sequence of MAGI2_2, Q86UL8 (Q86UL8 410-522): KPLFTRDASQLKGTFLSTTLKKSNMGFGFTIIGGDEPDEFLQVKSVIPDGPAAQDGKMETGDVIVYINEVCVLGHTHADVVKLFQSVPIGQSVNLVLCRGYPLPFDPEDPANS
Sequence of LIMK2, P53671 (P53671 143-248): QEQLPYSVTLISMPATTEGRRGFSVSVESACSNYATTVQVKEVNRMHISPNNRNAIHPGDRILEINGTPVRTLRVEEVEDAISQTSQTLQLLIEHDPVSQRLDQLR
Sequence of Inadl_10, Q8NI35 (Q8NI35 1673-1763): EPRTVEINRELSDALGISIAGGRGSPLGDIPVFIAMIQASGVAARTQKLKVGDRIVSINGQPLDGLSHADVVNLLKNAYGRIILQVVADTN
Sequence of MAST2, Q6P0Q8 (Q6P0Q8 1099-1202): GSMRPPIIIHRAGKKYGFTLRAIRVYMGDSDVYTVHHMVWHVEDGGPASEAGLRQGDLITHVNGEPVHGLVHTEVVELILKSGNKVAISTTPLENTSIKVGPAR
Sequence of NHERF4_4, Q86UT5 (Q86UT5 464-550): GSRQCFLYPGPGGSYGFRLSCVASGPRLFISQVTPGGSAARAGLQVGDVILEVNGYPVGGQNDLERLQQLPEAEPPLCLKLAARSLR
Sequence of MAGI2_5, Q86UL8 (Q86UL8 915-1017): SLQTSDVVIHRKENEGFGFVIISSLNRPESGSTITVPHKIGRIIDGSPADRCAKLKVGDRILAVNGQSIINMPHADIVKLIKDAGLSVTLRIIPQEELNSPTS
Sequence of TJP2_1, Q9UDY2 (Q9UDY2 24-128): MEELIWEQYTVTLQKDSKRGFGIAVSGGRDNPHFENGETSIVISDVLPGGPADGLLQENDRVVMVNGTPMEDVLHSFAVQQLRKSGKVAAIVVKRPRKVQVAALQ

Row | Binder | pKd (APBA1_1, Q02410) | pKd (ARHGEF12, Q9NZN5-2) | pKd (DLG1_2, Q12959) | pKd (DLG2_3, Q15700) | pKd (DLG5_1, Q8TDM6) | pKd (DVL3, Q92997) | pKd (GRIP1_2, Q9Y3R0) | pKd (GRIP2_3, Q9C0E4) | pKd (HTRA4, P83105) | pKd (IL16_1, Q14005) | pKd (Inadl_10, Q8NI35) | pKd (Inadl_8, Q8NI35) | pKd (LIMK2, P53671) | pKd (LIN7C, Q9NUP9) | pKd (MAGI2_2, Q86UL8) | pKd (MAGI2_5, Q86UL8) | pKd (MAST2, Q6P0Q8) | pKd (NHERF4_1, Q86UT5-2) | pKd (NHERF4_4, Q86UT5) | pKd (RAPGEF6, Q8TEU7) | also measured
1 | FHPLGADSQV [SLC2A1, P11166] | below the threshold | below the threshold | 3.88 | below the threshold | below the threshold | below the threshold | below the threshold | below the threshold | below the threshold | 3.51 | below the threshold | below the threshold | below the threshold | below the threshold | below the threshold | below the threshold | 4.25 | below the threshold | below the threshold | below the threshold | pKd (RHPN1, Q8TCX5): 4.29; pKd (SNTA1, Q13424): below the threshold; pKd (SNTB1, Q13884): 3.64; pKd (SNTG1, Q9NSN8): 3.88; pKd (TJP2_1, Q9UDY2): below the threshold; pKd (TX1BP3, O14907): 3.77
2 | VDFPPKESSL [ACVR2A, P27037] | below the threshold | 4.2 | 4.24 | 3.75 | below the threshold | below the threshold | below the threshold | below the threshold | below the threshold | below the threshold | below the threshold | below the threshold | below the threshold | 3.73 | 3.78 | below the threshold | 5.05 | 3.35 | below the threshold | below the threshold | pKd (RHPN1, Q8TCX5): 3.97; pKd (SNTA1, Q13424): 4.28; pKd (SNTB1, Q13884): 4.41; pKd (SNTG1, Q9NSN8): 3.65; pKd (TJP2_1, Q9UDY2): below the threshold; pKd (TX1BP3, O14907): 4.13
3 | SGSRPSATVV [HPV73-E6, Q82005] | below the threshold | below the threshold | 4.3 | 3.61 | below the threshold | 3.5 | below the threshold | below the threshold | 3.86 | below the threshold | below the threshold | 3.53 | below the threshold | 3.81 | 4.19 | 3.7 | 3.88 | below the threshold | below the threshold | 3.57 | pKd (RHPN1, Q8TCX5): below the threshold; pKd (SNTA1, Q13424): 3.54; pKd (SNTB1, Q13884): below the threshold; pKd (SNTG1, Q9NSN8): 3.6; pKd (TJP2_1, Q9UDY2): 3.77; pKd (TX1BP3, O14907): below the threshold
